B1: ZBTB22 (parent)
chain: HTGLKPYECGVCAKKFMWRDSFMR

Variants of: B1
Test: protein stability index of a GFP-peptide fusion (GPS, HEK-293T) (PSI 1-6); higher = more stable
Conditions: c terminus: a fixed tail appended
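Further: lentivirally expressed fusions sorted by FACS into six bins by GFP to DsRed ratio, PSI derived from sequencing read proportions per bin multiplied by bin number.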

Protein stability index of substitutions, site by site:
C9: E 1.1 | Q 1.65 | T 1.78 | S 1.42 | I 1.98 | M 2.58 | V 2.02 | W 2.35 | K 2.22 | N 2.26
M17: I 2.8 | Y 1.53 | A 2.39 | L 2.18 | P 2.35 | K 1.27
R19: K 2.88 | Q 2.03 | I 1.71 | S 2.12 | E 1.58 | F 1.55 | N 2.29 | L 2.82
Y7: E 1.3 | F 2.27 | V 1.67 | T 3.12 | D 1.82 | K 3.09 | N 2.43 | Q 1.77 | I 3.53
H1: S 1.92 | T 2.24 | Q 2.71
W18: C 1.85 | V 2.43 | Y 3 | D 2.09 | I 1.57 | R 2.05 | P 2.88 | M 1.78 | N 1.61 | S 1.52 | E 2.75
P6: V 1.1 | H 2.3 | T 2.99
K15: C 2.1 | Y 2.76 | F 2 | R 2.86 | S 2.12 | L 1.52 | T 1.61 | G 2.95
F16: Q 2.16 | R 2.1 | H 1.6 | P 3 | V 1.95 | Y 3.36 | S 3.33 | I 1.6 | N 1.39 | A 1.1 | D 2.45
L4: C 1.64 | G 1.92 | A 1.62 | F 2.27 | I 2.75 | E 1.86
T2: N 2.28 | K 2.14 | P 2.72 | C 3.8 | Y 2.79 | G 1.74 | F 4.25 | M 1.17
E8: T 2.61 | C 1.96 | M 2.26 | L 1.49 | P 2.59
A13: I 2.5 | W 3.78 | K 1.22 | F 3.02 | Q 1.55 | L 2.64 | D 1
S21: W 2.84 | E 1.78 | P 3.07 | H 2.26 | T 1.73 | A 2.23 | L 3.24 | R 1.08
G10: D 1.98 | L 2.17 | N 2.62 | A 2.82 | Y 3.51
V11: R 1.75 | E 2.09 | P 3.87 | Q 1.8
C12: W 3.06 | S 2.56 | K 2.58 | D 1.12 | A 1.62 | Y 2.91 | G 3.24 | E 3.07 | T 2.56
K14: D 1.91 | P 1.21 | E 1.9 | I 1.66 | C 2.55 | A 1.26
G3: P 4.19 | A 2.15 | C 2.47 | N 3.32 | E 3.34 | K 2.3
K5: R 2.38 | S 1.96 | C 2.43 | F 2.66
F22: K 2.54 | C 2.21 | Y 1.89 | R 1.56 | D 3.47 | H 1.45
M23: N 2.22 | L 1.85 | T 2.71 | Y 2.82 | F 2.41 | R 2.64 | E 4.04 | W 2.22 | K 1.92
D20: C 3.48 | A 2.16 | Y 2.74 | P 1.72 | K 3.45 | N 2.48 | V 1.69 | I 2.1
R24: H 3.35 | I 1.79 | N 3.03 | W 1.67 | Q 1.6 | T 3.9 | S 2.96
